The target in data set [1] is T1, human beta defensin 2 (HBD2) (human, UniProt O15263 24-64).
T1 chain: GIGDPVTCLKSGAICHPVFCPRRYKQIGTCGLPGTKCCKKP
In words: microscopy of complex.

For data set [2], the target named is T2, human beta defensin 3 (HBD3) (human, UniProt P81534 23-67).
T2 chain: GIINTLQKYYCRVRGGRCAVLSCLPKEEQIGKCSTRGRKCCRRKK
The data set is described as follows: aggregate formation.

Consider two molecules from article PMC4433160.

GGTGCATCGATGCAGGGGGG (ssDNA, phosphorothioate at some nucleotides (underlining lost in text)) [FITC-CpG ODN D35]: the binding result in data set [1] is on record as “binds”.

For ATCGACTCTCGAGCGTTCTC (ssDNA, phosphorothioate (underlining lost in text)) [CpG ODN K3], the binding result in data set [2] is given as “binds”.
